The record followed here is publication PMC7417313.

Assay in all cases: SPR; His-tagged rH fragment held on a Ni-charged NTA chip (BIAcore X or 3000; 500-1,000 RU, reloaded for each injection), C3 protein injected in HBS-P (10 mM HEPES pH 7.4, 150 mM NaCl, 0.005% P20) at 5 μL/min, 25°C; reference cell with nickel only; equilibrium levels fitted to a one-site equation
In test [1] the target is recombinant Factor H fragment rH 1-8 (human).
For test [2], the target named is full-length recombinant Factor H (human) (UniProt P08603).
Chain of full-length recombinant Factor H (human) (P08603 19-1231): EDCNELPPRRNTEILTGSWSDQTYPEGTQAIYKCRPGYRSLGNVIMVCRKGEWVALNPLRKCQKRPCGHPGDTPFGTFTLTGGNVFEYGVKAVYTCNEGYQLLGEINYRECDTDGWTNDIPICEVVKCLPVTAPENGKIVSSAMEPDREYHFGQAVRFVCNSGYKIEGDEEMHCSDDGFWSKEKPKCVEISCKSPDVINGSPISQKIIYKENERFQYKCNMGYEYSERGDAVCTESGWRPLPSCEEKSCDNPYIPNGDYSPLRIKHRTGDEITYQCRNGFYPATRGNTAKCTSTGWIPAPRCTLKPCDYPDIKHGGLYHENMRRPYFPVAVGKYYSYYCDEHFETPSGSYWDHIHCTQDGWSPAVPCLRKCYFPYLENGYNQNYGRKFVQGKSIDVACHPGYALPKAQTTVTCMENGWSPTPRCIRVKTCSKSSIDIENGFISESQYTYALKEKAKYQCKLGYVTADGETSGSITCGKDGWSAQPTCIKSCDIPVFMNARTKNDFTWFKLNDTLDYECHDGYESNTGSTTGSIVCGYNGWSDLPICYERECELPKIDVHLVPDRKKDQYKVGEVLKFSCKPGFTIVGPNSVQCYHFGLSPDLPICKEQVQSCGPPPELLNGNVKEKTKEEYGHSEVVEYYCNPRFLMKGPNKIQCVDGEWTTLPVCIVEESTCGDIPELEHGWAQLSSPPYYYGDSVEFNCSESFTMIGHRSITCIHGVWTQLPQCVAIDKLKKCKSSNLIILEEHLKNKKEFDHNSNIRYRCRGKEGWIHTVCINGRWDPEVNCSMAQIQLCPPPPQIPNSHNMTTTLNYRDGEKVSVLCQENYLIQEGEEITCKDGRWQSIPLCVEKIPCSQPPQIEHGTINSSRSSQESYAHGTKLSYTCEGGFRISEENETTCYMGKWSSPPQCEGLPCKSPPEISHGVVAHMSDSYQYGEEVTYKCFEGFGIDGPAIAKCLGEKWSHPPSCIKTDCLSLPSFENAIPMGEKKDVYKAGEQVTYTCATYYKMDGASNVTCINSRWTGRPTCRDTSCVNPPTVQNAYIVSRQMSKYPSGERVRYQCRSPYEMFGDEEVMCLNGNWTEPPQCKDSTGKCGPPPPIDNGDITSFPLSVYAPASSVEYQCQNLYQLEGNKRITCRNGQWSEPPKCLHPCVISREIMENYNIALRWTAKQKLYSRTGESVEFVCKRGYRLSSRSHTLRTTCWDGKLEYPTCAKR
For test [3], the target named is recombinant Factor H fragment rH 18-20 (human).
Test [4] has as its target recombinant Factor H fragment rH 17-20 (human).
Test [5] has as its target recombinant Factor H fragment rH 16-20 (human).
For test [6], the target named is recombinant Factor H fragment rH 19-20 (human).
In test [7] the target is recombinant Factor H fragment rH 1-7 (human).
The target of test [8] is recombinant Factor H fragment rH 1-6 (human).

Chain of C3d (P01024 1002-1303): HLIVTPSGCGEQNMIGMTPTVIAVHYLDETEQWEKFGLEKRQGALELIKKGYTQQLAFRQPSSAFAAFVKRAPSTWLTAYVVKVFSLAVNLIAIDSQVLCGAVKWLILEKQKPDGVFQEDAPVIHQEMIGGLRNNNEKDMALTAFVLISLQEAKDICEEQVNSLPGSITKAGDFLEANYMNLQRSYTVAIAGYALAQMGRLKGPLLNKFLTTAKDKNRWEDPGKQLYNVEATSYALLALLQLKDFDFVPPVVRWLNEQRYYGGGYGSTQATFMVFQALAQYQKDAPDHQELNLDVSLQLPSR

For the substance C3b (domain or fragment), the Kd – broadly, the equilibrium constant for the complex coming apart – in test [1] is 0.15 µM; in test [2], 0.095 µM; in test [3] it was 1.9 µM; in test [4], 2.1 µM; in test [5], 2.4 µM; in test [6] it was 1.7 µM. Further, the Kd in test [7] and in test [8] was 0.08 µM each time.

With “C3d (from UniProt P01024 1002-1303) (domain or fragment)”, the dissociation constant (Kd) in test [6] is 1.9 µM.

For “complement component C3 (native C3) (natural protein)”, in test [8], the Kd amounted to 0.4 µM.

In the case of iC3b (domain or fragment), the Kd in test [6] was found to be 2.8 µM; in test [8], 5 µM.
